The values that follow come from patent US20210246166A1 (Bayer, published 2021).

Numbered stars: 1 amine (or outer) side, 2 acyl side, 3 side chain; on linkers, the order of the positions; unused ones are H or OH. Bridge positions count the residues as written; N and C are the ends. Square brackets hold non-standard residues; d marks the D form. Ends that are not written are not given here. * marks the point of attachment. X13 = (2S)‑2‑amino‑3‑(1-methylcyclopropyl)propanoic acid, CC1(C[C@H](N[*:1])C(=O)[*:2])CC1; Piperidin‑4‑ylacetic acid = O=C(CC1CCNCC1)*; Oic = O=C(O)[C@@H]1C[C@@H]2CCCC[C@@H]2N1; Gly(cPent) = N[C@H](C(=O)O)C1CCCC1; NMeI = CC[C@H](C)[C@H](NC)C(=O)O; tBuAla = CC(C)(C)C[C@H](N)C(=O)O; Pen = CC(C)(S)[C@H](N)C(=O)O; NMeC = CN[C@@H](CS)C(=O)O; Sar = CNCC(=O)O

Test [1] deals with T1, Recombinant human MASP1 enzyme (fragment corresponding to amino acids 297-699, C-terminal His Tag) (human, UniProt P48740 297-699).
T1 sequence: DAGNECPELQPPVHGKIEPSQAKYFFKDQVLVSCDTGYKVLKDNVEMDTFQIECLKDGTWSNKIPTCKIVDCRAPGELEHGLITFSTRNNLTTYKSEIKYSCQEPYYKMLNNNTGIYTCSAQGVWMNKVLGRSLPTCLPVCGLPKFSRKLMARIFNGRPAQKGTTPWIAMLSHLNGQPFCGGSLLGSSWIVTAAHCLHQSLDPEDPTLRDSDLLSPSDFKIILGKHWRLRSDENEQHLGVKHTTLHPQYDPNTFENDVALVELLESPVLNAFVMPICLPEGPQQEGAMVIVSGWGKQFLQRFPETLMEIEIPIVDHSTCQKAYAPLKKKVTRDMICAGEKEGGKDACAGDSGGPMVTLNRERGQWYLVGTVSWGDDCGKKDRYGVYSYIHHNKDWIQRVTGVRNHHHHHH
The experiment in a line: cell-based or functional assay.

Test [2] concerns the target Recombinant human MASP2 enzyme (fragment corresponding to amino acids 297-686, C-terminal His Tag) (human, UniProt O00187 297-686). The experiment in a line: cell-based or functional assay.

Recombinant human MASP2 enzyme (fragment corresponding to amino acids 297-686, C-terminal His Tag), sequence (O00187 other isoform, or with tags, fused parts or gaps limits assumed): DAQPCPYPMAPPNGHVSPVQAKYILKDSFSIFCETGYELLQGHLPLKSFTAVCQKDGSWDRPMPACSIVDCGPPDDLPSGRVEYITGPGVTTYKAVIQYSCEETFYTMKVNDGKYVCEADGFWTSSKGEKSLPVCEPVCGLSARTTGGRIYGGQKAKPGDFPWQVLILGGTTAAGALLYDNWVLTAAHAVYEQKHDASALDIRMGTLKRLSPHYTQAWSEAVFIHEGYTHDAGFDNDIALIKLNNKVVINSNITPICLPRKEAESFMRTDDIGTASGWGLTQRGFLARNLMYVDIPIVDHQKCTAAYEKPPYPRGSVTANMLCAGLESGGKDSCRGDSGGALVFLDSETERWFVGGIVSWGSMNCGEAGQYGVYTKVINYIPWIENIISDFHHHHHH

In the case of [Sar]ICSRSLP[Oic]I[Pen]IP-NH2 (disulfide 3-11; also: tartrate salt) [((N-Me)G)-IC+SRSLP-(Oic)-I-(Pen)+IP-NH2 (Tartrate)], the “human MASP1 IC50” value in test [1] was 1.1 nM. For the same molecule, the “human MASP2 IC50” value in test [2] turned out to be 35 nM.

B1: IC+SRS-((tBu)A)-PPI-(Pen)+IP-OH (peptide)
peptide: ICSRS[tBuAla]PPI[Pen]IP-OH
modifications: disulfide 2-10; N-terminus assumed
SMILES: CC[C@H](C)[C@H](N)C(=O)N[C@H]1CSSC(C)(C)[C@@H](C(=O)N[C@H](C(=O)N2CCC[C@H]2C(=O)O)[C@@H](C)CC)NC(=O)[C@H]([C@@H](C)CC)NC(=O)[C@@H]2CCCN2C(=O)[C@@H]2CCCN2C(=O)[C@H](CC(C)(C)C)NC(=O)[C@H](CO)NC(=O)[C@H](CCCNC(=N)N)NC(=O)[C@H](CO)NC1=O
For the molecule B1, the “human MASP1 IC50” value in test [1] was 10 nM. In test [2], the “human MASP2 IC50” value is 400 nM.

B2: ((N-Me)G)-((N-Me)G)-((N-Me)G)-((N-Me)G)-((N-Me)G)-IC+SRS-((tBu)A)-PPI-(Pen)+IP-NH2 (peptide)
peptide: [Sar][Sar][Sar][Sar][Sar]ICSRS[tBuAla]PPI[Pen]IP-NH2
modifications: disulfide 7-15; N-terminus assumed
SMILES: CC[C@H](C)[C@H](NC(=O)CN(C)C(=O)CN(C)C(=O)CN(C)C(=O)CN(C)C(=O)CNC)C(=O)N[C@H]1CSSC(C)(C)[C@@H](C(=O)N[C@H](C(=O)N2CCC[C@H]2C(N)=O)[C@@H](C)CC)NC(=O)[C@H]([C@@H](C)CC)NC(=O)[C@@H]2CCCN2C(=O)[C@@H]2CCCN2C(=O)[C@H](CC(C)(C)C)NC(=O)[C@H](CO)NC(=O)[C@H](CCCNC(=N)N)NC(=O)[C@H](CO)NC1=O
As for B2, the “human MASP1 IC50” value in test [1] was 11 nM. In addition, the “human MASP2 IC50” value in test [2] was 38 nM.

B3: A-((N-Me)I)-C+SRSLPPIC+IPD-NH2 (peptide)
peptide: A[NMeI]CSRSLPPICIPD-NH2
modifications: disulfide 3-11; N-terminus assumed
SMILES: CC[C@H](C)[C@@H]1NC(=O)[C@@H]2CCCN2C(=O)[C@@H]2CCCN2C(=O)[C@H](CC(C)C)NC(=O)[C@H](CO)NC(=O)[C@H](CCCNC(=N)N)NC(=O)[C@H](CO)NC(=O)[C@@H](NC(=O)[C@H]([C@@H](C)CC)N(C)C(=O)[C@H](C)N)CSSC[C@@H](C(=O)N[C@H](C(=O)N2CCC[C@H]2C(=O)N[C@@H](CC(=O)O)C(N)=O)[C@@H](C)CC)NC1=O
Take B3: in test [1], the “human MASP1 IC50” value was determined as 10.1 nM. In test [2], the “human MASP2 IC50” value was determined as 2700 nM.

B4: IC+SRSLP-(Oic)-I-(Pen)+IP-OH (peptide)
peptide: ICSRSLP[Oic]I[Pen]IP-OH
modifications: disulfide 2-10; N-terminus assumed
SMILES: CC[C@H](C)[C@H](N)C(=O)N[C@H]1CSSC(C)(C)[C@@H](C(=O)N[C@H](C(=O)N2CCC[C@H]2C(=O)O)[C@@H](C)CC)NC(=O)[C@H]([C@@H](C)CC)NC(=O)[C@@H]2C[C@@H]3CCCC[C@@H]3N2C(=O)[C@@H]2CCCN2C(=O)[C@H](CC(C)C)NC(=O)[C@H](CO)NC(=O)[C@H](CCCNC(=N)N)NC(=O)[C@H](CO)NC1=O
As to B4, the “human MASP1 IC50” value in test [1] was 11 nM. The “human MASP2 IC50” value in test [2] turned out to be 1200 nM.

B5: kIC+SRS-((tBu)A)-PPI-(Pen)+I-NH2 (peptide)
peptide: [dK]ICSRS[tBuAla]PPI[Pen]I-NH2
modifications: disulfide 3-11; N-terminus assumed
SMILES: CC[C@H](C)[C@H](NC(=O)[C@H]1NC(=O)[C@H]([C@@H](C)CC)NC(=O)[C@@H]2CCCN2C(=O)[C@@H]2CCCN2C(=O)[C@H](CC(C)(C)C)NC(=O)[C@H](CO)NC(=O)[C@H](CCCNC(=N)N)NC(=O)[C@H](CO)NC(=O)[C@@H](NC(=O)[C@@H](NC(=O)[C@H](N)CCCCN)[C@@H](C)CC)CSSC1(C)C)C(N)=O
As for B5, the “human MASP1 IC50” value in test [1] was 10 nM. In addition, the “human MASP2 IC50” value in test [2] worked out at 110 nM.

B6: ((N-Me)G)-IC+SRS-((2S)-2-amino-3-(1-methylcyclopropyl)propanoic acid)-P-(Oic)-I-(Pen)+IP-NH2 (peptide)
peptide: [Sar]ICSRS[X13]P[Oic]I[Pen]IP-NH2
modifications: disulfide 3-11; N-terminus assumed
SMILES: CC[C@H](C)[C@H](NC(=O)CNC)C(=O)N[C@H]1CSSC(C)(C)[C@@H](C(=O)N[C@H](C(=O)N2CCC[C@H]2C(N)=O)[C@@H](C)CC)NC(=O)[C@H]([C@@H](C)CC)NC(=O)[C@@H]2C[C@@H]3CCCC[C@@H]3N2C(=O)[C@@H]2CCCN2C(=O)[C@H](CC2(C)CC2)NC(=O)[C@H](CO)NC(=O)[C@H](CCCNC(=N)N)NC(=O)[C@H](CO)NC1=O
As for B6, the “human MASP1 IC50” value in test [1] was 11 nM. In addition, the “human MASP2 IC50” value in test [2] worked out at 57 nM.

B7: AIC+SRSLPP-(Cpg)-C+IPD-NH2 (peptide)
peptide: AICSRSLPP[Gly(cPent)]CIPD-NH2
modifications: disulfide 3-11; N-terminus assumed
SMILES: CC[C@H](C)[C@H](NC(=O)[C@H](C)N)C(=O)N[C@H]1CSSC[C@@H](C(=O)N[C@H](C(=O)N2CCC[C@H]2C(=O)N[C@@H](CC(=O)O)C(N)=O)[C@@H](C)CC)NC(=O)[C@H](C2CCCC2)NC(=O)[C@@H]2CCCN2C(=O)[C@@H]2CCCN2C(=O)[C@H](CC(C)C)NC(=O)[C@H](CO)NC(=O)[C@H](CCCNC(=N)N)NC(=O)[C@H](CO)NC1=O
Consider B7, for which the “human MASP1 IC50” value in test [1] stood at 11 nM. In addition, the “human MASP2 IC50” value in test [2] is 170 nM.

B8: AIC+SRS-((tBu)A)-P-(Oic)-I-((N-Me)C)+IPD-NH2 (peptide)
peptide: AICSRS[tBuAla]P[Oic]I[NMeC]IPD-NH2
modifications: disulfide 3-11; N-terminus assumed
SMILES: CC[C@H](C)[C@H](NC(=O)[C@H](C)N)C(=O)N[C@H]1CSSC[C@@H](C(=O)N[C@H](C(=O)N2CCC[C@H]2C(=O)N[C@@H](CC(=O)O)C(N)=O)[C@@H](C)CC)N(C)C(=O)[C@H]([C@@H](C)CC)NC(=O)[C@@H]2C[C@@H]3CCCC[C@@H]3N2C(=O)[C@@H]2CCCN2C(=O)[C@H](CC(C)(C)C)NC(=O)[C@H](CO)NC(=O)[C@H](CCCNC(=N)N)NC(=O)[C@H](CO)NC1=O
As for B8, the “human MASP1 IC50” value in test [1] came out at 12 nM. Moreover, in test [2], the “human MASP2 IC50” value is 370 nM.

B9: (Piperidin-4-ylacetic acid)-IC+SRS-((tBu)A)-PPI-((N-Me)C)+I-NH2 (peptide)
peptide: {Piperidin‑4‑ylacetic acid}-ICSRS[tBuAla]PPI[NMeC]I-NH2
modifications: disulfide 2-10
SMILES: CC[C@H](C)[C@H](NC(=O)[C@@H]1CSSC[C@H](NC(=O)[C@@H](NC(=O)CC2CCNCC2)[C@@H](C)CC)C(=O)N[C@@H](CO)C(=O)N[C@@H](CCCNC(=N)N)C(=O)N[C@@H](CO)C(=O)N[C@@H](CC(C)(C)C)C(=O)N2CCC[C@H]2C(=O)N2CCC[C@H]2C(=O)N[C@@H]([C@@H](C)CC)C(=O)N1C)C(N)=O
For B9, the “human MASP1 IC50” value in test [1] came to 10 nM. For the same molecule, in test [2], the “human MASP2 IC50” value was 32 nM.

B10: IC+SRS-((tBu)A)-PP-I-((N-Me)C)+IPD-NH2 (peptide)
peptide: ICSRS[tBuAla]PPI[NMeC]IPD-NH2
modifications: disulfide 2-10; N-terminus assumed
SMILES: CC[C@H](C)[C@H](N)C(=O)N[C@H]1CSSC[C@@H](C(=O)N[C@H](C(=O)N2CCC[C@H]2C(=O)N[C@@H](CC(=O)O)C(N)=O)[C@@H](C)CC)N(C)C(=O)[C@H]([C@@H](C)CC)NC(=O)[C@@H]2CCCN2C(=O)[C@@H]2CCCN2C(=O)[C@H](CC(C)(C)C)NC(=O)[C@H](CO)NC(=O)[C@H](CCCNC(=N)N)NC(=O)[C@H](CO)NC1=O
In the case of B10, in test [1], the “human MASP1 IC50” value came out at 10 nM. In test [2], the “human MASP2 IC50” value came to 620 nM.
